{"source": "patent US20190041390A1", "about": "(UNIVERSITY OF TENNESSEE RESEARCH FOUNDATION, published 2019)", "binders": {"B1": {"name": "synthetic rVλ6Wil fibrils (other)", "VL": "NFLLTQPHSVSESPGKTVTISCTRSSGSIANNYVHWYQQRPGSSPTTVIFEDDHRPSGVPDRFSGSVDTSSNSASLTISGLKTEDEADYYCQSYDHNNQVFGGGTKLTVLG", "notes": "Amyloid fibril polymer of rVλ6Wil monomers; Used in suspension (pulldown), coupled to a CM-5 chip (SPR) or dried onto microplate wells; also called rVλ6Wil synthetic amyloid fibrils; rVλ6Wil fibril seed"}}, "biological_target": "T1, streptavidin/gold (10 nm-diameter; Electron Microscopy Sciences) (UniProt P22629 37-163, limits assumed, conjugated to 10 nm gold particles)", "T1 construct": "Detection reagent; also called avidin-conjugated gold particles; gold particles", "T1 sequence (P22629 37-163 limits assumed)": "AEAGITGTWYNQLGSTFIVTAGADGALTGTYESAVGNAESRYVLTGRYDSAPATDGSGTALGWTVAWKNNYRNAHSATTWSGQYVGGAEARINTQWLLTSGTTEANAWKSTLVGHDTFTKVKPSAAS", "test": "immunogold electron microscopy control, fibrils with recruited AL1κ and no mAb added", "excerpt": "Immunogold electron microscopy was used to investigate the binding sites of AL1κ LC on rVλ6Wil fibrils (FIG. 6A and FIG. 6B). The distribution of AL1κ LC (evidenced by the presence of anti-κ LC mAb-bound 10 nm-diameter gold particles; arrows) was generally at the ends of the rVλ6Wil fibrils and less commonly seen along the length of the fibril (arrowheads; FIG. 6A). A sample of fibrils with AL1κ LC recruited but with no mAb added served as a non-specific binding control. No gold particles were observed associated with the majority of fibrils in this preparation (FIG. 6B).\nTwenty-five μg of rVλ6Wil fibrils were mixed with 1 μg […] in 200 μL of tris-buffered saline (TBS) with 0.05% tween-20 (TBST) in a 1.5 mL-volume microcentrifuge tube. The sample was rotated at RT for 24 h before being centrifuged at 20,000×g for 8 min, and the supernatant was discarded. The pellet was washed in 400 μL TBST twice by centrifugation, before the sample was split into two 200 μL-volume samples in TBST. To one sample, 10 μg each of two biotinylated anti-κ mAbs (αLKC8 and 14-6E4) were added; no antibodies were added to the other sample. Both samples were rotated 2 h at RT prior to two washes by centrifugation, as before. The pellets were resuspended in […] TBST with addition of a 1:4 dilution of streptavidin/gold stock solution ([…]; Electron Microscopy Sciences, Hatfield, Pa.). […]"}
{"binder": "B1", "values": [{"measurement": "binding result", "result": "no binding"}]}
